Source: patent US20210196796A1 (SYNTHEKINE, published 2021)

T1: orthogonal hCD122 receptor (hoRb), hCD122 with H133D and Y134F (human, UniProt P14784 27-550)
T1 sequence: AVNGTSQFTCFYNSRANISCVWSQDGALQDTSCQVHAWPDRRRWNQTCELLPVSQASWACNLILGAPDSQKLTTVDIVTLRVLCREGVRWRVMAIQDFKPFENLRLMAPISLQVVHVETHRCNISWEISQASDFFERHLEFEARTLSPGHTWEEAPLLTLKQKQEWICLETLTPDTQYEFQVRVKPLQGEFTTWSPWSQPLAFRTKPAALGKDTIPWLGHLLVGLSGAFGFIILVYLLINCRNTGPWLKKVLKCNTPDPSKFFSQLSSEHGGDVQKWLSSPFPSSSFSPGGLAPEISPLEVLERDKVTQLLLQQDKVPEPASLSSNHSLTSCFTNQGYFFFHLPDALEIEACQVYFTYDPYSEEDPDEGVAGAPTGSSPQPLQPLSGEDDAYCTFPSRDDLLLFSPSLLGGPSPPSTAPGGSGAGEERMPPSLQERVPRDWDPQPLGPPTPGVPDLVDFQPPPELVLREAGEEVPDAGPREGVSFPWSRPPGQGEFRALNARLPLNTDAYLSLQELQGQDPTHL


Tests used:
[1] = molecular target: T1, orthogonal hCD122 receptor (hoRb), …; assay: cell-based or functional assay
[2] = molecular target: T1, orthogonal hCD122 receptor (hoRb), …; assay: cell-based or functional assay; remark: listed apart in the source
Throughout, for Relative Proliferation Fold Change 3F8 1:10: reference of the scale not given here.
Throughout, for Relative Proliferation Fold Change 3F8 1:2: reference of the scale not given here.
Throughout, for Relative Proliferation Fold Change 3F8 1:50: reference of the scale not given here.
Throughout, for Relative Proliferation Fold Change NKL 1:10: reference of the scale not given here.
Throughout, for Relative Proliferation Fold Change NKL 1:2: reference of the scale not given here.
Throughout, for Relative Proliferation Fold Change NKL 1:50: reference of the scale not given here.

| Binder | 3F8 Ortho Proliferation Signal 1:2 [1] | 3F8 Ortho Proliferation Signal 1:10 [1] | 3F8 Ortho Proliferation Signal 1:50 [1] | Relative Proliferation Fold Change 3F8 1:2 [1] | Relative Proliferation Fold Change 3F8 1:10 [1] | Relative Proliferation Fold Change 3F8 1:50 [1] | NKL Ortho Proliferation Signal 1:2 [2] | NKL Ortho Proliferation Signal 1:10 [2] | NKL Ortho Proliferation Signal 1:50 [2] | Relative Proliferation Fold Change NKL 1:2 [2] | Relative Proliferation Fold Change NKL 1:10 [2] | Relative Proliferation Fold Change NKL 1:50 [2] |
| --- | --- | --- | --- | --- | --- | --- | --- | --- | --- | --- | --- | --- |
| SQVLEA (ligand) APTSSSTKKTQLQLSQLLVLLEAILNGINNYKNPKLTRMLTFKFYMPKKATELKHLQCLEEELKPLEEVLNLAQSKNFHLRPRDLISNINVIVLELKGSETTFMCEYADETATIVEFLNRWITFCQSIISTLT | 33400 cts/min | 31600 cts/min | 12600 cts/min | 32.9 fold | 28.2 fold | 13.1 fold | 21100 | 18200 | 9480 | 1.78 fold | 1.19 fold | 0.67 fold |
| SQVLFA (Ref# 073) (ligand) APTSSSTKKTQLQLSQLLVLLFAILNGINNYKNPKLTRMLTFKFYMPKKATELKHLQCLEEELKPLEEVLNLAQSKNFHLRPRDLISNINVIVLELKGSETTFMCEYADETATIVEFLNRWITFCQSIISTLT |  |  |  |  |  |  |  |  |  | 1.23 fold |  |  |
| SQVLFA (Ref# 079) (ligand) APTSSSTKKTQLQLSQLLVLLFAILNGINNYKNPKLTRMLTFKFYMPKKATELKHLQCLEEELKPLEEVLNLAQSKNFHLRPRDLISNINVIVLELKGSETTFMCEYADETATIVEFLNRWITFCQSIISTLT |  |  |  |  |  |  |  |  |  | 1.23 fold |  |  |
| SQVLGA (ligand) APTSSSTKKTQLQLSQLLVLLGAILNGINNYKNPKLTRMLTFKFYMPKKATELKHLQCLEEELKPLEEVLNLAQSKNFHLRPRDLISNINVIVLELKGSETTFMCEYADETATIVEFLNRWITFCQSIISTLT | 18000 cts/min | 9170 cts/min | 2300 cts/min | 74.5 fold | 15.6 fold | 5.06 fold | 13500 | 11700 | 8730 | 1.1 fold | 0.83 fold | 0.6 fold |
| SQVLAA (ligand) APTSSSTKKTQLQLSQLLVLLAAILNGINNYKNPKLTRMLTFKFYMPKKATELKHLQCLEEELKPLEEVLNLAQSKNFHLRPRDLISNINVIVLELKGSETTFMCEYADETATIVEFLNRWITFCQSIISTLT | 15900 cts/min | 7290 cts/min | 2940 cts/min | 69.2 fold | 10.1 fold | 4.29 fold | 14600 | 11800 | 9400 | 1.05 fold | 0.72 fold | 0.62 fold |

Second part, the binder after the results:

| 3F8 Ortho Proliferation Signal 1:2 [1] | 3F8 Ortho Proliferation Signal 1:10 [1] | 3F8 Ortho Proliferation Signal 1:50 [1] | Relative Proliferation Fold Change 3F8 1:2 [1] | Relative Proliferation Fold Change 3F8 1:10 [1] | Relative Proliferation Fold Change 3F8 1:50 [1] | NKL Ortho Proliferation Signal 1:2 [2] | NKL Ortho Proliferation Signal 1:10 [2] | NKL Ortho Proliferation Signal 1:50 [2] | Relative Proliferation Fold Change NKL 1:2 [2] | Relative Proliferation Fold Change NKL 1:10 [2] | Relative Proliferation Fold Change NKL 1:50 [2] | Binder |
| --- | --- | --- | --- | --- | --- | --- | --- | --- | --- | --- | --- | --- |
| 32400 cts/min | 21900 cts/min | 8150 cts/min | 171 fold | 22.6 fold | 11.7 fold | 33400 | 27700 | 13800 | 2.96 fold | 1.81 fold | 0.96 fold | ΔA1, SQVLKA (ligand) PTSSSTKKTQLQLSQLLVLLKAILNGINNYKNPKLTRMLTFKFYMPKKATELKHLQCLEEELKPLEEVLNLAQSKNFHLRPRDLISNINVIVLELKGSETTFMCEYADETATIVEFLNRWITFCQSIISTLT |
| 40800 cts/min | 29200 cts/min | 10700 cts/min | 49.1 fold | 21.7 fold | 15.3 fold | 55400 | 51900 | 25300 | 3.65 fold | 3.32 fold | 1.76 fold | ΔT7, SQVLKA (ligand) APTSSSKKTQLQLSQLLVLLKAILNGINNYKNPKLTRMLTFKFYMPKKATELKHLQCLEEELKPLEEVLNLAQSKNFHLRPRDLISNINVIVLELKGSETTFMCEYADETATIVEFLNRWITFCQSIISTLT |
| 40100 cts/min | 31000 cts/min | 12400 cts/min | 34.2 fold | 29.4 fold | 10.5 fold | 64000 | 61900 | 27800 | 4.41 fold | 3.8 fold | 1.77 fold | ΔP2, SQVLKA (ligand) ATSSSTKKTQLQLSQLLVLLKAILNGINNYKNPKLTRMLTFKFYMPKKATELKHLQCLEEELKPLEEVLNLAQSKNFHLRPRDLISNINVIVLELKGSETTFMCEYADETATIVEFLNRWITFCQSIISTLT |
| 19700 cts/min | 9730 cts/min | 3150 cts/min | 59.8 fold | 13 fold | 4.68 fold | 16400 | 16100 | 8570 | 1.5 fold | 1.06 fold | 0.59 fold | SQVLLA (ligand) APTSSSTKKTQLQLSQLLVLLLAILNGINNYKNPKLTRMLTFKFYMPKKATELKHLQCLEEELKPLEEVLNLAQSKNFHLRPRDLISNINVIVLELKGSETTFMCEYADETATIVEFLNRWITFCQSIISTLT |
